Assay results from patent publication US11213590B2, “SSTR-targeted conjugates and particles and formulations thereof” (priority 2016, dated 2022).
Marks after values point to notes of the source that are not given here.

What was measured:
SSTR3 = SSTR3 (Homo sapiens, UniProt P32745); assay: Affinity profile (half-maximal inhibitory concentration), SSTR3; assay type: binding
From the text: DOTATE, also known as DOTA-TATE or DOTA-octreotate, comprises an amide of the acid DOTA, which connects a radionuclide and (Tyr3)-octreotate, a derivative of octreotide. DOTATOC, also known as edotreotide, SMT487, or (DOTA^0-Phe^1-Tyr^3)octreotide, is also an octreotide derivative which can be bound to radionuclides for diagnosis and treatment.

[1] = Drug substance stability study; assay type: physicochemical
Procedure: Stability studies were carried out for Conjugate 57. The tests included in the stability protocols ensure that changes relating to appearance, strength, purity, and moisture of the drug substance are monitored through-out the shelf life of the drug substance. Endotoxins are also monitored by annual inclusion of tests for these attributes in the stability program.
In another stability study, the following conditions were tested: 5° C.±3° C. under nitrogen and −20° C.±5° C. under nitrogen. Nitrogen was selected to prevent oxidation and assure control atmosphere during storage.

[2] = molecular target: human Ether-á-go-go-Related Gene (hERG) ion channel (Homo sapiens, UniProt Q12809); assay: hERG ion channel inhibition, IonWorks Quattro patch clamp; assay type: cell-based; conditions: IonWorks Quattro; up to 10 μM
human Ether-á-go-go-Related Gene (hERG) ion channel, sequence (Q12809 whole entry): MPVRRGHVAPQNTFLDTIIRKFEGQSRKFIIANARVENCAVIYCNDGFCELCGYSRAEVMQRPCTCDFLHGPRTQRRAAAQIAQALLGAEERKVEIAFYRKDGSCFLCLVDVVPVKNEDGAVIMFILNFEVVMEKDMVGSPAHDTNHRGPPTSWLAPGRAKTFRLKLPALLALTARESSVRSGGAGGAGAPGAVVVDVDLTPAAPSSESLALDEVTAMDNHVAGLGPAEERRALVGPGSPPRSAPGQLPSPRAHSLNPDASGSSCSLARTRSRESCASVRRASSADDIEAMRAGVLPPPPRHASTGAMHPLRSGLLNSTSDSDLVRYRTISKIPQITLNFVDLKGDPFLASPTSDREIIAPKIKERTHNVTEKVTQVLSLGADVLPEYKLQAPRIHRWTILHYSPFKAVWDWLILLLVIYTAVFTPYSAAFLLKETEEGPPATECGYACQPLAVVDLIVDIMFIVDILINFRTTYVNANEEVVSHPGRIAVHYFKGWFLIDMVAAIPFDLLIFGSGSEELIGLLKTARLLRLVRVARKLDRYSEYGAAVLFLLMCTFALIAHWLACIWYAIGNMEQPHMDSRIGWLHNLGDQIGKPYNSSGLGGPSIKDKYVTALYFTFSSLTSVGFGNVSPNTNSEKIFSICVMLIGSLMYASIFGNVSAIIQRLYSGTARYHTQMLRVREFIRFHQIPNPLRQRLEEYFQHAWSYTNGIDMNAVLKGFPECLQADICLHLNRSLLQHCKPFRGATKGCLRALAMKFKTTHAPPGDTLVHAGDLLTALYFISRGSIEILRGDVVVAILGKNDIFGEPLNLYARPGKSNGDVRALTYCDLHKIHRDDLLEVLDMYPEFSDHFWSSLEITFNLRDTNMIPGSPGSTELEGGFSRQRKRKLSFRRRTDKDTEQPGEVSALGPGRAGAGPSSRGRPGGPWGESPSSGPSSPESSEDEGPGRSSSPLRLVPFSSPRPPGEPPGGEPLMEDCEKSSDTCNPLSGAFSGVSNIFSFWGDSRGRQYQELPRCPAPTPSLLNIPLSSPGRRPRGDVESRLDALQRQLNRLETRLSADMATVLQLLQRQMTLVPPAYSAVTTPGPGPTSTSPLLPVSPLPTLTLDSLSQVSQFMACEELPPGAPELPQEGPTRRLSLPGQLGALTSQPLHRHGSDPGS
Procedure: (§1) The purpose of this study was to evaluate the potential of Conjugate 57 to prolong the QT interval via modulation of the ion channel, human Ether-á-go-go Related Gene (hERG). The potential inhibition of the ion channel activity by Conjugate 57 was tested using an IonWorks Quattro electrophysiological platform, which is an automated high-throughput patch clamp system. Conjugate 57 was tested at eight different concentrations, starting at a high concentration of 10 μM and a low concentration of 0.005 μM with a minimum of five replicates for each concentration. hERG currents were evoked by a three pulse protocol where voltage was first stepped to +40 mV for two seconds from a holding potential of −80 mV to inactivate hERG channels. The voltage is then stepped back to −50 mV for two seconds to evoke a tail current prior to returning to the holding potential for 1 second. The voltage protocol was applied (Pre), compounds added, incubated for 600 seconds, and the voltage protocol was applied a final time (Post) on the IonWorks Quattro.

hERG = hERG (Homo sapiens, UniProt Q12809); assay: as above; assay type: cell-based; conditions: human; all concentrations tested (0.005 μM to 10 μM); 600 seconds incubation
hERG, sequence (Q12809 whole entry): as above
Procedure: as §1

NCI-H69 xenograft = assay: NCI-H69 lung xenograft efficacy, formulations and schedules; assay type: in vivo, mice; conditions: for MTV (Mean Tumor Volume): total dose 2.0 mg/kg; for MTV (Mean Tumor Volume) / mice with complete tumor regression: Day 21
Procedure: A further NCI-H69 study design included Conjugate 57 dosed iv at 1.0 mg/kg formulated in propylene glycol (PG), 1.0 mg/kg formulated in Solutol HS15, 0.5 mg/kg formulated in Solutol HS15 dosed twice per week, and 0.33 mg/kg formulated in Solutol HS15 dosed three times per week. A comparator group was dosed with SOC cisplatin dosed iv at 5.0 mg/kg once per week/etoposide dosed ip at 8.0 mg/kg three times per week over two weeks. A negative control vehicle was dosed with the Solutol HS 15 vehicle. All groups contained 10 animals.

[3] = Lot 1, 5° C. ± 3° C. study, Initial
[4] = Lot 1, −20° C. ± 5° C. study, Initial
[5] = Lot 1 stored at 5° C. ± 3° C., 3 Month
[6] = Lot 1 stored at −20° C. ± 5° C., 3 Month
[7] = Lot 2, 5° C. ± 3° C./Ambient RH under nitrogen, Initial
[8] = Lot 2, 25° C. ± 2° C., 60% RH ± 5% RH study, Initial
[9] = Lot 2 stored at 5° C. ± 3° C./Ambient RH under nitrogen, 1 Month
[10] = Lot 2 stored at 5° C. ± 3° C./Ambient RH under nitrogen, 1 Month, preliminary identification
[11] = Lot 2 stored at 25° C. ± 2° C., 60% RH ± 5% RH, 3 Month

SSTR3, sequence (P32745 whole entry): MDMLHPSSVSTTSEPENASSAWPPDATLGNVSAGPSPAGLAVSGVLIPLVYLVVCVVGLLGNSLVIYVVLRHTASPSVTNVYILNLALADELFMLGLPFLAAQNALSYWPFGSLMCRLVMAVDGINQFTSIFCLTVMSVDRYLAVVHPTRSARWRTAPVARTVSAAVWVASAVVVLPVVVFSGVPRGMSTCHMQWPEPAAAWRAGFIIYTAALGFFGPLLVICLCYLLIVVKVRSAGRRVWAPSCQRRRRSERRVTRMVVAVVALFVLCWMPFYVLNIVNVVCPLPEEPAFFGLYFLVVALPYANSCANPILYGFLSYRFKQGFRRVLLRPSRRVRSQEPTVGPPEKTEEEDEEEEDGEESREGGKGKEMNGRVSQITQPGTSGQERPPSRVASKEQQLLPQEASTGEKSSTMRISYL

## COc1cc2cc(c1Cl)N(C)C(=O)C[C@H](OC(=O)[C@H](C)N(C)C(=O)CCSSC[C@H](NC(=O)[C@@H]1CSSC[C@H](NC(=O)[C@H](N)Cc3ccccc3)C(=O)N[C@@H](Cc3ccc(O)cc3)C(=O)N[C@H](Cc3c[nH]c4ccccc34)C(=O)N[C@@H](CCCCN)C(=O)N[C@@H]([C@@H](C)O)C(=O)N1)C(N)=O)[C@]1(C)O[C@H]1[C@H](C)[C@@H]1C[C@@](O)(NC(=O)O1)[C@H](OC)/C=C/C=C(\C)C2 [Conjugate 57]
SSTR3
  IC50: 0.058 µM
[1]; 5° C.±3° and 25° C./60% Relative Humidity (RH), 3 months
  degradation on storage: Significant degradation
[1]; [3]
  Appearance: White powder
  Assay: 88.2%
  Moisture Content by KF: 4.3%
  Purity (RP-HPLC): 98.0%
  Total Impurities: 1.9%
[1]; [4]
  Appearance: White powder
  Assay: 88.2%
  Moisture Content by KF: 4.3%
  Purity (RP-HPLC): 98.0%
  Total Impurities: 1.9%
[1]; [5]
  Appearance: White powder
  Assay: 88.2%
  Purity (RP-HPLC): 97.4%
  Total Impurities: 2.5%
[1]; [6]
  Appearance: White powder
  Assay: 90.9%
  Purity (RP-HPLC): 98.0%
  Total Impurities: 1.9%
[1]; [7]
  Appearance: White powder
  Assay: 97.0%
  Moisture Content by KF: 2.1%
  Purity (RP-HPLC): 98.0%
  Total Impurities: 2.0%
[1]; Lot 2, 5° C. ± 3° C./Ambient RH under nitrogen, Initial, preliminary identification by marker retention time
  Starting Materials: BT-976 content: 0.05%^a
[1]; [8]
  Appearance: White powder
  Assay: 88.2%
  Moisture Content by KF: 4.3%
  Purity (RP-HPLC): 98.0%
  Total Impurities: 1.9%
[1]; [9]
  Appearance: White powder
  Assay: 94.6%
  Moisture Content by KF: 1.9%
  Purity (RP-HPLC): 96.6%
  Total Impurities: 3.4%
[1]; [10]
  Starting Materials: BT-976 content: 0.05% a
  Starting Materials: DM1 content: 0.09% a
[1]; [11]
  Appearance: White powder
  Assay: 78.7%
  Purity (RP-HPLC): 90.8%
  Total Impurities: 9.2%
[1]; after 3 months at −20° C.±5° C.
  change in purity on storage: No significant change in purity
[1]; at −20° C.
  time stable: at least 3 months
[2]
  hERG ion channel inhibition (in words): did not inhibit
hERG
  inhibition at 600 seconds: < 20%
NCI-H69 xenograft; 0.33 mg/kg iv in Solutol HS15, 3 doses per week
  MTV (Mean Tumor Volume): 330 mm3
NCI-H69 xenograft; 0.33 mg/kg three times per week in Solutol HS15
  mice with complete tumor regression: no mice having complete tumor regressions
NCI-H69 xenograft; 0.5 mg/kg iv in Solutol HS15, 2 doses per week
  MTV (Mean Tumor Volume): 105 mm3
NCI-H69 xenograft; 0.5 mg/kg twice weekly in Solutol HS15, 10 animals
  mice with complete tumor regression: 1/10
NCI-H69 xenograft; 1.0 mg/kg in PG, 10 animals
  mice with complete tumor regression: 2/10
NCI-H69 xenograft; 1.0 mg/kg in Solutol HS15, 10 animals
  mice with complete tumor regression: 3/10
NCI-H69 xenograft; 1.0 mg/kg iv in PG, 1 dose per week
  MTV (Mean Tumor Volume): 178 mm3
NCI-H69 xenograft; 1.0 mg/kg iv in Solutol HS15, 1 dose per week
  MTV (Mean Tumor Volume): 55 mm3
NCI-H69 xenograft; NCI-H69 xenograft
  adverse effects with health observations: No adverse effects
NCI-H69 xenograft; NCI-H69 xenograft, all Conjugate 57 groups
  weight loss: No weight loss
